Biological target: T1, Recombinant human TNF-α (Sino Biological Inc., catalog number: 10602-HNAE) (human, UniProt P01375 77-233)
T1 construct: Bought protein; also called recombinant human TNF-α protein
Assay: SPR (Biacore T100), BY19.4 captured by anti-IgG on CM5 chip

T1 sequence (P01375 77-233 limits assumed): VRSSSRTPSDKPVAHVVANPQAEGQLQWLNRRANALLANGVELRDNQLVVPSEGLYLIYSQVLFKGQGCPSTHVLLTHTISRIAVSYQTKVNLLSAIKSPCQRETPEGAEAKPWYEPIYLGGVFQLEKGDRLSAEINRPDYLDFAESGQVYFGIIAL

B1: anti-IL-17A antibody BY19.4 (antibody, human IgG4 S228P, kappa, V domains shown)
VH: QVQLVQSGAEVKKPGSSVKVSCKASGYSFTDYHIHWVRQAPGQGLEWMGVINPMYGTTDYNQRFKGRVTITADESTSTAYMELSSLRSEDTAVYYCARYDYFTGTGVYWGQGTLVTVSS
VL: DIVMTQTPLSLSVTPGQPASISCRSSRSLVHSRGNTYLHWYLQKPGQSPQLLIYKVSNRFIGVPDRFSGSGSGTDFTLKISRVEAEDVGVYYCSQSTHLPFTFGQGTKVEIKR
notes: also called control antibody BY19.4; BY19.4 (ixekizumab)
Question: Does B1 bind?
Answer: no binding (tested: 7 nM to 600 nM tested)

Source: patent US20210261654A1 (BEIJING BEYOND BIOTECHNOLOGY, published 2021)
